Test system: p2-encoded leu2*
Assay: p2 leu2* fluctuation tests in GA-Y021 (p2 mutation rate reporter strain)
Assay type: cell-based, S. cerevisiae
Settings: for Per-base substitution rate pf p2: TP-DNAP2 variant in trans, wt TP-DNAP2 in cis, 36 replicates, (95% C.I.); for Fold increase: p2 substitution rate over no variant in trans
Source text: For fluctuation tests used to measure p2 mutation rates, leu2* served as a marker for detecting mutational events. leu2* is a disabled version of LEU2, where Q180 is replaced with a TAA stop codon. Q180 is a permissive site where mutation to any other codon other than TAG and TGA results in functional reversion to LEU2. These mutational events can be detected by plating scores of parallel cultures on medium lacking leucine and counting the number distribution of functional LEU2 mutants.
For TP-DNAP2 library screening, each library member was subjected to small-scale leu2* fluctuation tests with six replicates. 190 library members from each yeast library transformation were arrayed and inoculated into liquid SC medium lacking uracil and histidine, and passaged three times at 1:10,000 dilutions. mKate2 fluorescence was measured at every passage on a microplate reader (TECAN Infinite® 200 PRO, settings: λex=588, λem=633) to track p2 copy number stabilization. To perform fluctuation tests, each library member was diluted 1:10,000 into liquid SC medium buffered to pH 5.8 and lacking uracil, histidine, tryptophan, and dilutions were split into six 100 μL replicates. Cultures were grown for 48 hours at 30° C. to reach saturation. Saturated cultures were washed with 200 μL 0.9% NaCl to remove residual leucine and resuspended in 35 μL of 0.9% NaCl. 10 μL of this resuspension was spot plated onto solid SC medium buffered to pH 5.8 and lacking uracil, histidine, tryptophan and leucine. Spot plates were allowed to dry and incubated at 30° C. Colonies were counted after 5 days. Colony counts were used to calculate the expected number of LEU2 functional mutants (m), using the p0 method (Foster, 2006, Methods Enzymol, 409:195-213).
To precisely measure p1 and p2 per-base substitution mutation rates, several modifications were made to the small-scale protocol. First, 36 replicates were performed for reconfirmation of candidate TP-DNAP2 mutators, and 48 replicates for genomic and mutual orthogonality experiments. Titers were also determined for each strain after spot plating by pooling the residual volume from 4 replicates and plating dilutions on YPD. The expected number of LEU2 functional mutants (m) was determined by the Ma-Sandri-Sarkar maximum likelihood estimator (as calculated by the FALCOR tool and corrected for partial plating (Foster, 2006, Methods Enzymol, 409:195-213; Sarkar et al., 1992, Genetica, 85:173-179; Hall et al., 2009, Bioinformatics, 25:1564-1565). The mean mKate2 fluorescence was determined from 50,000 event counts on Attune™ NxT Flow Cytometer and converted to p2 copy number by using a calibration curve. To determine per-base substitution rates, the corrected m was normalized to the average cell titer, the p2 copy number, and the target size for functional leu2* reversion (2.33 bp). 95% confidence intervals were similarly scaled.
To identify error-prone TP-DNAP2s, a small library of TP-DNAP2s diversified at locations hypothesized to be responsible for DNAP fidelity was screened. […] Four distinct site-saturation mutagenesis libraries were generated, each diversifying S370, Y424, L474, or F882 in TP-DNAP2 encoded on pGA55-reTP-DNAP2. Due to unsuccessful attempts to generate a strain with a full deletion of p2-encoded TP-DNAP2 and simultaneous integration of mKate, URA3, and leu2*, each library was transformed into GA-Y021 for convenient screening. However, since GA-Y021 still encodes wt TP-DNAP2 on p2-delORF1-mUL*, p2 mutation rates measured in this format are the result of in tandem replication of p2 by wt TP-DNAP2 and each TP-DNAP2 variant encoded in trans. 6-fold coverage of each library was maintained by picking 190 yeast colonies and passaging under selection for URA3 to stabilize the copy number of p2-delORF1-mUL* in the presence of the newly introduced TP-DNAP2 variants. […]

Row | Molecule | Per-base substitution rate pf p2 | Fold increase
1 | L474D: TP-DNAP2 variant (protein) MDYKDKALNDLRNVYADFDSLPLDFRQILIKDRATLLQKEDVEKKILERQEDAKKYAEYLKQSEIPERISLPNIKRHKGVSISFEETSEDMVLEPRPFIFDGLNIRCFRRETIFSLKNKILNMVKESSSFKNVSRQSVSFMYFKIFNKGKVIASTKSVNIYEDKIDERLEDLCNNFDDVLKKIIDVTYGYESLFVSETYSYVIFYAKSIYFPQPRCVNNWGNNIPNILTFDSFKLFTANKNNVSCIKQCSRFLWQKDFNTLEEMIEYKNGNICIVTPQLHINDVRDIKSFNDIRLYSESPIKTFSVIDNTITYLFYFKEHLGVIFNITKSRHDRRVTKFSPLSKFSDVKNITVCFDIESYFDPEKESNQVNIPFICCASIIYNKVIGNIVDFEGRDCVAQMIEYVVDICGELNISSVELIAHNGGGYDFHYILSSMYNPAAIKNILIRNNSFISFNFAHDGVKFSVKDSYSFLDCSLANASKAFLNEETFKKTDFPHHDLKTADDLYKVYKEWSSVNTEINHVVEKEKLLITSEHIVNFTKNDKSKTLIEWSKDYCRNDVLVLSKVWLEFKNAVEDIFNCELVDQTMTLAGLSYKLFQANMPFDVELRHPNKEDYFNMREALIGGRCISVNGIYKDVLCLDVKSLYPASMAFYDQPYGSFKRVSSRPKDELGIYYVRVTPNRNNKSNFFPIRSHNKITYNNFEESTYIAWYTNVDIDIGLSEGHNIEYIPFDSYGNIGYSWSKKGKIFEKYIKDVLYKLKIKYEKQNNKVKRNVIKIIMNSLWGKFAQKWVNFEYFIKSEDDIDFESEEAYKIWDTDFMLIKKIKESTYSSKPIQNGVFTLSWARYHMKSIWDAGAKEGAECIYSDTDSIFVHKEHFKKNAKFMLNGLKVPIIGSEVGQLELECEFDKLLCAGKKQYMGFYTYFQDGKPCIKEKKRFKGIPSNYIIPELYAHLLSGADKEAKIQFLKFRREWGSVKGYIENKTVKAT | 12.2 (7.33-17.9) ×10^−10 | 2.0
2 | S370E: TP-DNAP2 variant (protein, listed as Kluyveromyces lactis) MNDELAFLNSQIDDYSDDIEFLRTEVFRINRYSKSIYSLMKNSSKEAIKETIEFNKYGQEIHSKIKEKEISLIEAIKLMEKKYKYLRSLNKTKDKSKKKKIHTKDIETLKTIYKTKADFDIRNFKNAETFTYENYSLLIPSEKELIDLIPEIEEDYSYYFYVSLTITGPTIFGGVTRKVPIIDTYGDINKDFYNKIKENITKVLDRVPFYEEKESEIICKKVLITLTVNKWESIDKWYKNVKSKSKKFKDFTLFLASDTSKNCVQQCVEYLGGKWNTNYSLEKMIPQQKIVTYIPLLMDIQYVQSMEDLISDFDEPNTDCKNIARLLKWNGHMGVITKIDKDVKINRIQRKRIIDVENKEVKEVFFDIEEFSDETKHQIPYLICWSYLGELYYRTGKNCIKEFVEEILSYNVDIILYAWYGSGYDYQHVLPYMKSKCIKDKYIIKNNMITYGELYYENAIIYLKDPYLFILTSLDKASKAFNVINKGEFPHSIIHSWEDLNKILPNWVKIQKRMIEYKDDNKLNIYYKNIEIFENDRNYNTILENAIEYCKVDVLAMEKVWIKFKKLLEKNLNITVSVKTFTLSQLSMKIMESKLPKYVKLYVPTLEEYSKIRNAIYGGRVISKNGIYEENIVYADVVSLYPSAMKLLKHSYGKPKLVDYIDFEKHGIYRVTLLNKHDQEPKNYLNFVPRRINRKLTWEWFKIHEGWYHTYDLIIAKSEGFDIYCHEGFEYPEKDYIFNDFIDTLYSMKETHTACSCEEQPCPIRMVAKIALNGGGYGKFVQKPIDKEIYIVKRDVVAGECDKLQENENGEICIGKRLVKRPLFYNLDSENYDKMIIEKEDEPIYSTQCGISILSASRYRLYKLCKQFENIDIIYSDTDSIFVKQKSVDWELFKSKCGSELGQLDSTIDDTKNAIISKMYIGGAKMYAFEYLNNKNKLITKLHCKGVPNYMLSLNQFKYLMESPDNTIAYKFEIIRRKLVNVITKDLIKDIKQT | 27.9 (19.7-37.2) ×10^−10 | 4.7
3 | S370L: TP-DNAP2 variant (protein, listed as Kluyveromyces lactis) MNDELAFLNSQIDDYSDDIEFLRTEVFRINRYSKSIYSLMKNSSKEAIKETIEFNKYGQEIHSKIKEKEISLIEAIKLMEKKYKYLRSLNKTKDKSKKKKIHTKDIETLKTIYKTKADFDIRNFKNAETFTYENYSLLIPSEKELIDLIPEIEEDYSYYFYVSLTITGPTIFGGVTRKVPIIDTYGDINKDFYNKIKENITKVLDRVPFYEEKESEIICKKVLITLTVNKWESIDKWYKNVKSKSKKFKDFTLFLASDTSKNCVQQCVEYLGGKWNTNYSLEKMIPQQKIVTYIPLLMDIQYVQSMEDLISDFDEPNTDCKNIARLLKWNGHMGVITKIDKDVKINRIQRKRIIDVENKEVKEVFFDIELFSDETKHQIPYLICWSYLGELYYRTGKNCIKEFVEEILSYNVDIILYAWYGSGYDYQHVLPYMKSKCIKDKYIIKNNMITYGELYYENAIIYLKDPYLFILTSLDKASKAFNVINKGEFPHSIIHSWEDLNKILPNWVKIQKRMIEYKDDNKLNIYYKNIEIFENDRNYNTILENAIEYCKVDVLAMEKVWIKFKKLLEKNLNITVSVKTFTLSQLSMKIMESKLPKYVKLYVPTLEEYSKIRNAIYGGRVISKNGIYEENIVYADVVSLYPSAMKLLKHSYGKPKLVDYIDFEKHGIYRVTLLNKHDQEPKNYLNFVPRRINRKLTWEWFKIHEGWYHTYDLIIAKSEGFDIYCHEGFEYPEKDYIFNDFIDTLYSMKETHTACSCEEQPCPIRMVAKIALNGGGYGKFVQKPIDKEIYIVKRDVVAGECDKLQENENGEICIGKRLVKRPLFYNLDSENYDKMIIEKEDEPIYSTQCGISILSASRYRLYKLCKQFENIDIIYSDTDSIFVKQKSVDWELFKSKCGSELGQLDSTIDDTKNAIISKMYIGGAKMYAFEYLNNKNKLITKLHCKGVPNYMLSLNQFKYLMESPDNTIAYKFEIIRRKLVNVITKDLIKDIKQT | 14.8 (9.32-21.1) ×10^−10 | 2.5
4 | S370K: TP-DNAP2 variant (protein, listed as Kluyveromyces lactis) MNDELAFLNSQIDDYSDDIEFLRTEVFRINRYSKSIYSLMKNSSKEAIKETIEFNKYGQEIHSKIKEKEISLIEAIKLMEKKYKYLRSLNKTKDKSKKKKIHTKDIETLKTIYKTKADFDIRNFKNAETFTYENYSLLIPSEKELIDLIPEIEEDYSYYFYVSLTITGPTIFGGVTRKVPIIDTYGDINKDFYNKIKENITKVLDRVPFYEEKESEIICKKVLITLTVNKWESIDKWYKNVKSKSKKFKDFTLFLASDTSKNCVQQCVEYLGGKWNTNYSLEKMIPQQKIVTYIPLLMDIQYVQSMEDLISDFDEPNTDCKNIARLLKWNGHMGVITKIDKDVKINRIQRKRIIDVENKEVKEVFFDIEKFSDETKHQIPYLICWSYLGELYYRTGKNCIKEFVEEILSYNVDIILYAWYGSGYDYQHVLPYMKSKCIKDKYIIKNNMITYGELYYENAIIYLKDPYLFILTSLDKASKAFNVINKGEFPHSIIHSWEDLNKILPNWVKIQKRMIEYKDDNKLNIYYKNIEIFENDRNYNTILENAIEYCKVDVLAMEKVWIKFKKLLEKNLNITVSVKTFTLSQLSMKIMESKLPKYVKLYVPTLEEYSKIRNAIYGGRVISKNGIYEENIVYADVVSLYPSAMKLLKHSYGKPKLVDYIDFEKHGIYRVTLLNKHDQEPKNYLNFVPRRINRKLTWEWFKIHEGWYHTYDLIIAKSEGFDIYCHEGFEYPEKDYIFNDFIDTLYSMKETHTACSCEEQPCPIRMVAKIALNGGGYGKFVQKPIDKEIYIVKRDVVAGECDKLQENENGEICIGKRLVKRPLFYNLDSENYDKMIIEKEDEPIYSTQCGISILSASRYRLYKLCKQFENIDIIYSDTDSIFVKQKSVDWELFKSKCGSELGQLDSTIDDTKNAIISKMYIGGAKMYAFEYLNNKNKLITKLHCKGVPNYMLSLNQFKYLMESPDNTIAYKFEIIRRKLVNVITKDLIKDIKQT | 26.2 (18.0-35.4) ×10^−10 | 4.4

Source: patent US20230242902A1, “A HIGHLY ERROR-PRONE […] R[…] FOR TARGETED CONTINUOUS EVOLUTION IN VIVO” (The Regents of the University of California, priority 2017, published 2023)
